Data reported in patent US20230189844.

Columns and labels:
Soybean agglutinin (SBA) = Soybean agglutinin (SBA) (UniProt P05046)
[1] = biological target: T1, Soy Bowman-Birk Inhibitor (UniProt P01055)
T1 sequence: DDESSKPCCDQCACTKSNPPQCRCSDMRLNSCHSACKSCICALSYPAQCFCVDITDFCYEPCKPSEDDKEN

[2] = biological target: T2, Soy Kunitz Inhibitor (Trypsin Inhibitor from soybean) (UniProt P01070)
T2 sequence: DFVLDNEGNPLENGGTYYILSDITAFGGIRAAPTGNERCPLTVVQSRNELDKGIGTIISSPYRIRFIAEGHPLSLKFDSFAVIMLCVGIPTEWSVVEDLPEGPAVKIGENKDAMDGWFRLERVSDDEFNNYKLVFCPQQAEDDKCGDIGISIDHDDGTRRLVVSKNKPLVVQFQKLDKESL

Chain of Soybean agglutinin (SBA) (P05046 33-285): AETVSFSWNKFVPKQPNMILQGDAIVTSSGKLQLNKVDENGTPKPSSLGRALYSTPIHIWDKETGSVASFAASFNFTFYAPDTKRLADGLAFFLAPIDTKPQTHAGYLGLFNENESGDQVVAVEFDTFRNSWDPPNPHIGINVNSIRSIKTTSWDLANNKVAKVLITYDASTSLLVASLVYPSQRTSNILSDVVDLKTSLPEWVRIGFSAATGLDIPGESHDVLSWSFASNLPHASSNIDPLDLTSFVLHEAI

Protease derived from Bacillus sp. NCIMB 40484
% of anti-nutritional factor degraded (SDS-PAGE band disappearance, 2 hours, 37° C., pH 6.5) (Soybean agglutinin (SBA)): 21%
% of anti-nutritional factor degraded (SDS-PAGE band disappearance, 2 hours, 37° C., pH 6.5) [1]: 41%
% of anti-nutritional factor degraded (SDS-PAGE band disappearance, 2 hours, 37° C., pH 6.5) [2]: 100%
